Ends that are not written are not given here.
Columns and labels:
[1] = molecular target: T1, Aβ42 (Homo sapiens, UniProt P05067); assay: Spiking and recovery test of Aβ42; conditions: PBS, 100 μM peptide assay, triplicate
T1 construct: purchased Abcam ab120301
Experimental: PBS and human serum were used as solutions for the spiking test. Each of the Aβ42 and Aβ40 stock solutions was diluted using PBS, and the mixture was diluted using human serum. The diluted samples were added to antibody-coated plates and incubated for 2 h. The binding conditions used for the antibody coating and the peptide, streptavidin, and TMB treatment steps are described above. To calculate the recovery ratio, we divided the signals of the mixtures by the signals of Aβ42.

[2] = molecular target: T1, Aβ42; assay: Binding of synthetic biotinylated peptide to Aβ42 captured on antibody-coated plate (enzyme-linked peptide assay, OD450); conditions: biotin-conjugated peptide serially diluted, 1 h, PBST, Aβ42 captured by anti-Aβ42 antibody (protein G plate), streptavidin-HRP/TMB, Hill-slope fitting, triplicate, read-out: dissociation constant (KD)
Experimental: ABPP was conjugated with biotin as a signal reporter, with a purity greater than 95%, as assessed using high-performance liquid chromatography. The binding affinities of peptides were estimated for each Aβ42- and antibody-coated plate. The coating methods followed the protocol described above, except for the use of PBST instead of TBST. After coating the plate with Aβ42, serially diluted peptide was added to the plate for 1 h. After peptide incubation, all wells were washed four times with PBST. Next, the wells were incubated with 100 µL of streptavidin-HRP (1:4000 in PBST) for 1 h. After incubation, the solution in the wells was washed four times with PBST. TMB solution was added to each well for 15 min. Next, 100 µL of 1 M H2SO4 was added to the wells to stop the reaction, and the absorbance was measured at 450 nm (OD450) using a microplate reader. To determine the detection range, serially diluted Aβ42 was added to the antibody-coated plates. After washing, the plate was incubated for 1 h with 100 µL of 100 µM peptide. Streptavidin and TMB treatment steps were performed as described above. Based on the measurements, the limit of detection (LOD) for the diagnostic system was calculated according to the formula from the IUPAC: LOD = 3 × SD/slope. To verify the specificity of our diagnostic system, other amyloid proteins were added to the antibody-coated plates. […]

T1 sequence (P05067 672-713 limits assumed): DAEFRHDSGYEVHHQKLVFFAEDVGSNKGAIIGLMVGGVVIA

## Aβ42: Aβ42 (ab120301) purchased from Abcam; analyte spiked in recovery test
[1]; Aβ40 + Aβ42 = 10 + 40 ng/mL, SD 12.46%, %RSD 12.84
  Average Recovery: 97.02%
[1]; Aβ40 + Aβ42 = 20 + 40 ng/mL, SD 5.81%, %RSD 6.053
  Average Recovery: 96.04%
[1]; Aβ40 + Aβ42 = 40 + 40 ng/mL, SD 10.51%, %RSD 10.15
  Average Recovery: 104.5%

## SEPQNIWQYLRN [ABPP]
[2]
  Kd: 17.5 ± 2.98 µM

Source: PMC8699310, “Development of a Low-Molecular-Weight Aβ42 Detection System Using a Enzyme-Linked Peptide Assay” (Biomolecules, 2021)
